Laboratory results published in PMC11045720.

Tests used:
[1] = target: Human 20 S proteasome (human); assay: cross-linking; formaldehyde 0.05% to 1% (vol/vol) on 1 mg/mL protein, 20 min at room temperature; read by denaturing mass photometry
[2] = target: Human 20 S proteasome (human); assay: mass photometry (native, nMP); samples diluted in their native buffer to 100-400 nM, then drop-diluted to 10-40 nM in a PBS droplet; room temperature (18 °C); triplicates
[3] = target: Alcohol dehydrogenase from baker's yeast (baker's yeast) (UniProt P00330); assay: as above
[4] = target: Alcohol dehydrogenase from baker's yeast (baker's yeast) (UniProt P00330); assay: cross-linking; DSBU at 25:1 to 1000:1 molar excess on 1 mg/mL protein, 45 min at room temperature (20 °C), quenched with Tris HCl; read by denaturing mass photometry (5 min in 5.4 M urea) and SDS-PAGE

Row | stoichiometry N [1] | percent of detected species that are monomers (nMP) [2] | stoichiometry N [2] | percent of detected species that are monomers (nMP) [3] | stoichiometry N [3] | stoichiometry N [4] | Substance
1 | 28 | 51% | 28 | – | – | – | Human 20 S proteasome (complex)
2 | – | – | – | 46% | 4 | 4 | Alcohol dehydrogenase from baker's yeast (from UniProt P00330 1-348) (enzyme)
